Test results published in patent US20210269836A1 (JOHN INNES CENTRE, published 2021).

T1: LAMT-YFPC (loganic acid methyltransferase fused to the C-terminal split YFP fragment) (UniProt B2KPR3 1-371)
T1 construct: Control construct of the BiFC assay; also called LAMT-YC; not shown: C-terminal split YFP fragment (YFPC)
T1 sequence (looked up): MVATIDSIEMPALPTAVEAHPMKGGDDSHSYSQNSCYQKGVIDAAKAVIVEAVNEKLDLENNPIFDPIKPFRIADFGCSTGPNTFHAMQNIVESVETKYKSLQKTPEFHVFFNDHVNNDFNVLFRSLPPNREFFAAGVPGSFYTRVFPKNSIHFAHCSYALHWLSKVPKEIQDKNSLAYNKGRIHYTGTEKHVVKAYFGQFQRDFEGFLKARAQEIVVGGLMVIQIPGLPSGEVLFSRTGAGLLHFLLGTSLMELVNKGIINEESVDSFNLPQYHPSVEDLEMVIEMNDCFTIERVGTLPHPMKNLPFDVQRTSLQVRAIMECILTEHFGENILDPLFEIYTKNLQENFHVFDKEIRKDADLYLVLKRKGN

T2: LAMT-YFPN (loganic acid methyltransferase fused to the N-terminal split YFP fragment) (UniProt B2KPR3 1-371)
T2 construct: Control construct of the BiFC assay; also called LAMT-YN; not shown: N-terminal split YFP fragment (YFPN)
T2 sequence (looked up): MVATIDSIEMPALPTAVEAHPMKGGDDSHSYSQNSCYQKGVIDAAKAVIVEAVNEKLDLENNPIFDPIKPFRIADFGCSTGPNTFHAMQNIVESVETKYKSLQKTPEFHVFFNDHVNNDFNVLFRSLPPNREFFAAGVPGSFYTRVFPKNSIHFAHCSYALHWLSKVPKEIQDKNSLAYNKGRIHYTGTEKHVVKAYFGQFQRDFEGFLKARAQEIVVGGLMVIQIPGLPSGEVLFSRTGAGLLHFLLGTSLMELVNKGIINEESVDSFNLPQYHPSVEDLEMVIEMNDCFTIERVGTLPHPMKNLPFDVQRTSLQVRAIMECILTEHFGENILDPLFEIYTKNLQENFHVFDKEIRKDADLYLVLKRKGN


Tests used:
[1] = molecular target: T1, LAMT-YFPC (loganic acid …); assay: BiFC in transiently transformed C. roseus cells
Experimental: (§1) Interaction of DPAS with TS and CS. DPAS/CS and DPAS/TS interactions were analyzed by BiFC in C. roseus cells transiently transformed by distinct combinations of plasmids encoding fusions with the two split YFP fragments, YFPN (YN) and YFPC (YC) as indicated on each pictures of the first row (A, D, G, J, M). Identification of transiently transformed cells was achieved by co-transformation with the nucleus (nuc)-CFP marker(B, E, H, K, N). […] Interactions of DPAS and TS with loganic acid methyltransferase (LAMT)-YN and LAMT-YC were also studied to evaluate the specificity of DPAS/TS interactions. Cell morphology is observed with differential interference contrast (DIC) (C, F, I, L, O). Scale bars, 10 μm.
(§2) Transient transformation of C. roseus cells by particle bombardment and fluorescence imaging were performed. Briefly, C. roseus plated cells were bombarded with DNA-coated gold particles (1 μm) and 1,100 psi rupture disc at a stopping-screen-to-target distance of 6 cm, using the Bio-Rad PDS1000/He system. Cells were cultivated for 16 h to 38 h (DPAS, CS and TS) or up to 96 h for PAS before being harvested and observed. The subcellular localization was determined using an Olympus BX-51 epifluorescence microscope equipped with an Olympus DP-71 digital camera and a combination of YFP and CFP filters. […]

[2] = molecular target: T2, LAMT-YFPN (loganic acid …); assay: BiFC in transiently transformed C. roseus cells
Experimental: as §1, §2

| binding result [1] | binding result [2] | Binder |
| --- | --- | --- |
| no binding |  | TS-YFPN (Tabersonine Synthase fused at its C-terminus to the N-terminal split YFP fragment) (enzyme, BiFC fusion expressed transiently inside C. roseus cells; also called TS-YN; not shown: N-terminal split YFP fragment (YFPN) from plasmid pSCA-SPYNE173) MGSSDETIFDLPPYIKVFKDGRVERLHSSPYVPPSLNDPETGGVSWKDVPISSVVSARIYLPKINNHDEKLPIIVYFHGAGFCLESAFKSFFHTYVKHFVAEAKAIAVSVEFRLAPENHLPAAYEDCWEALQWVASHVGLDISSLKTCIDKDPWIINYADFDRLYLWGDSTGANIVHNTLIRSGKEKLNGGKVKILGAILYYPYFLIRTSSKQSDYMENEYRSYWKLAYPDAPGGNDNPMINPTAENAPDLAGYGCSRLLISMVADEARDITLLYIDALEKSGWKGELDVADFDKQYFELFEMETEVAKNMLRRLASFIK |
|  | no binding | YFPC-DPAS (dehydroprecondylocarpine acetate synthase fused at its N-terminus to the C-terminal split YFP fragment) (enzyme, BiFC fusion expressed transiently inside C. roseus cells; also called YC-DPAS; dihydroprecondylocarpine acetate synthase; not shown: C-terminal split YFP fragment (YFPC) from plasmid pSCA-SPYCE (MR)) MAGKSAEEEHPIKAYGWAVKDRTTGILSPFKFSRRATGDDDVRIKILYCGICHTDLASIKNEYEFLSYPLVPGMEIVGIATEVGKDVTKVKVGEKVALSAYLGCCGKCYSCVNELENYCPEVIIGYGTPYHDGTICYGGLSNETVANQSFVLRFPERLSPAGGAPLLSAGITSFSAMRNSGIDKPGLHVGVVGLGGLGHLAVKFAKAFGLKVTVISTTSKKDDAINGLGADGFLLSRDDEQMKAAIGTLDAIIDTLAVVHPIAPLLDLLRSQGKFLLLGAPSQSLELPPIPLLSGGKSIIGSAAGNVKQTQEMLDFAAEHDITANVEIIPIEYINTAMERLDKGDVRYRFVVDIENTLTPPSEL |
